Experimental data taken from article PMC12125293.

Biological target: HR2 peptide of the SARS-CoV-2 spike (H1159-K1211), His-SUMO removed (SARS-CoV-2) (UniProt P0DTC2)
Assay: crystal structure

Substance: HR2 peptide of the SARS-CoV-2 spike (H1159-K1211), His-SUMO removed (from UniProt P0DTC2 1159-1211) (domain or fragment)
- stoichiometry N: 3
